Reference: patent US20080286752A1, “Methods for the production of HCV, assaying HCV entry, and screening drugs and cellular receptors for HCV” (priority 2005, published 2008)

What was measured:
[1] = biological target: T1, HCV E1 and E2 proteins (C22E1E2, genotype 1a) (Hepatitis C virus genotype 1a, UniProt P27958, H297R/K360A/N321D/N391S/R602W/V212I/Y589H); type: cell-based
T1 construct: residues 24-215 are E1, and residues 216-577 are E2; expressed in transfected cells; host or cells: 293T effector cells transfected with pcDNA3.1-HE1E2, co-cultured with Huh-7.5 target cells

HCV pseudoparticles = conditions: reports; cited from earlier work

Sequence	inhibition of HCV E1E2 mediated fusion ([1]; peptide added to cells at concentrations of 10 nM or above for an hour before fusion) [%]	inhibition of transduction with pseudoparticles (HCV pseudoparticles)	effect on HCV E1E2 mediated fusion ([1]; peptide added to cells for an hour before fusion, concentrations up to 10 mM)
SSGLYHVTNDCPNSSIVY	~40	inhibits	–
SAYQVRNSSGLYHVTNDC	–	does not	little effect
